# ± gives the standard error. For some assays here: Fewer inactive variants are shown than the library holds.
# B1: glmS ribozyme (parent)
# chain: AUAAAAGCGCCAGAACUACAGAAAUGUAGUUGACGAGGAGGAGGUUUAUCGAAUUUUCGGCGGAUGCCUCCAAA
# Assays:
# Settings in all cases: with glucosamine-6-phosphate
# [1] = variants of: B1; experiment: kcat; higher = faster cleavage; RNA array
# Summary of the method: (§1)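 Tiles of sequenced MiSeq chips were imaged over ~14 h at 37 °C. On them, barcoded ribozyme variants had been transcribed in situ by E. coli RNA polymerase and were tracked via a hybridised Cy3 probe while glucosamine-6-phosphate (40 μM to 10 mM) in HEPES/KCl/Mg(OAc)2 buffer flowed in. Per-tile medians, normalised to baseline and to non-cleaving reference variants, were fit to one- or two-exponential decays for kobs, and weighted Michaelis–Menten fits gave kcat and KM.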
# [2] = variants of: B1; experiment: KM; higher = weaker cofactor use; RNA array
# Summary of the method: as §1
# [3] = variants of: B1; experiment: self-cleavage kobs at 640 uM GlcN6P; higher = faster cleavage; RNA array
# Summary of the method: as §1
# [4] = variants of: B1; experiment: self-cleavage kobs at 2500 uM GlcN6P; higher = faster cleavage; RNA array
# Summary of the method: as §1
# [5] = variants of: B1; experiment: self-cleavage kobs at 10000 uM GlcN6P; higher = faster cleavage; RNA array
# Summary of the method: as §1
# [6] = variants of: B1; experiment: self-cleavage kobs at 160 uM GlcN6P; higher = faster cleavage; RNA array
# Summary of the method: as §1
# [7] = variants of: B1; experiment: self-cleavage kobs at 40 uM GlcN6P; higher = faster cleavage; RNA array
# Summary of the method: as §1
Variant,kcat [1],KM [2],self-cleavage kobs at 640 uM GlcN6P [3],self-cleavage kobs at 2500 uM GlcN6P [4],self-cleavage kobs at 10000 uM GlcN6P [5],self-cleavage kobs at 160 uM GlcN6P [6],self-cleavage kobs at 40 uM GlcN6P [7]
A14G G60C,1.11e-05 ± 3.4e-06 s⁻¹,–,–,–,–,–,–
A39U G43A,0.000177 ± 1.5e-05 s⁻¹,1170 ± 280 µM,5.75e-05 ± 8.5e-06 s⁻¹,0.000139 ± 1.6e-05 s⁻¹,0.000152 ± 1.4e-05 s⁻¹,–,–
U46A U47G,0.00143 ± 0.00056 s⁻¹,–,0.000647 ± 0.00013 s⁻¹,0.00107 ± 0.00027 s⁻¹,0.00106 ± 0.00029 s⁻¹,9.77e-05 ± 3.5e-05 s⁻¹,–
C67A C71A,0.000401 ± 8.3e-05 s⁻¹,–,0.00013 ± 4.6e-05 s⁻¹,0.000277 ± 4.8e-05 s⁻¹,0.000361 ± 4.3e-05 s⁻¹,–,4.21e-05 ± 1.2e-05 s⁻¹
C16A U47A,0.000851 ± 0.00014 s⁻¹,1150 ± 410 µM,0.000544 ± 0.00013 s⁻¹,0.000553 ± 0.00011 s⁻¹,0.000758 ± 0.00011 s⁻¹,9.46e-05 ± 2.7e-05 s⁻¹,–
A12U C58G,0.0011 ± 0.00023 s⁻¹,6470 ± 2000 µM,0.000109 ± 1.2e-05 s⁻¹,0.000287 ± 3e-05 s⁻¹,0.000677 ± 6.4e-05 s⁻¹,2.07e-05 ± 6e-06 s⁻¹,–
U46C A52G,0.000634 ± 0.00015 s⁻¹,5990 ± 2100 µM,7.1e-05 ± 1.4e-05 s⁻¹,0.000161 ± 3.6e-05 s⁻¹,0.000412 ± 7e-05 s⁻¹,–,–
C11U G59A,0.0105 ± 0.0043 s⁻¹,–,0.00203 ± 0.0004 s⁻¹,0.00582 ± 0.0018 s⁻¹,0.0116 ± 0.0016 s⁻¹,0.0014 ± 0.00027 s⁻¹,0.000335 ± 3.7e-05 s⁻¹
G29U G41U,8.68e-05 ± 1.2e-05 s⁻¹,651 ± 270 µM,5.08e-05 ± 1.6e-05 s⁻¹,6.65e-05 ± 2.9e-05 s⁻¹,7.94e-05 ± 2.1e-05 s⁻¹,–,–
A36U A64G C70U,6.13e-05 ± 1.3e-05 s⁻¹,–,–,7.29e-05 ± 2.6e-05 s⁻¹,5.17e-05 ± 1.8e-05 s⁻¹,–,–
A33U U46G,1.23e-05 ± 2.7e-06 s⁻¹,–,–,–,–,< 1e-05 s⁻¹,< 1e-05 s⁻¹
C16G A53G,0.00701 ± 0.0012 s⁻¹,2160 ± 510 µM,0.00151 ± 0.00025 s⁻¹,0.00339 ± 0.00099 s⁻¹,0.0061 ± 0.0011 s⁻¹,0.000453 ± 7.3e-05 s⁻¹,0.000168 ± 3.2e-05 s⁻¹
A48G A53U,6.17e-05 ± 9.3e-06 s⁻¹,–,–,4.65e-05 ± 1.4e-05 s⁻¹,5.16e-05 ± 7.9e-06 s⁻¹,–,–
U54G C70G,0.000119 ± 2.1e-05 s⁻¹,–,0.000182 ± 2.2e-05 s⁻¹,0.000182 ± 2.5e-05 s⁻¹,9.76e-05 ± 9.2e-06 s⁻¹,0.000128 ± 1.7e-05 s⁻¹,8.74e-05 ± 8.1e-06 s⁻¹
G37A C67A,0.000407 ± 4.2e-05 s⁻¹,1680 ± 370 µM,0.000119 ± 2e-05 s⁻¹,0.000258 ± 4e-05 s⁻¹,0.000336 ± 4.8e-05 s⁻¹,–,–
A15G U30A,0.018 ± 0.005 s⁻¹,923 ± 360 µM,0.00983 ± 0.0012 s⁻¹,0.0165 ± 0.0028 s⁻¹,0.0115 ± 0.003 s⁻¹,0.00255 ± 0.00036 s⁻¹,0.000649 ± 0.00011 s⁻¹
G13U G41C,0.000161 ± 1.8e-05 s⁻¹,–,< 1e-05 s⁻¹,–,–,< 1e-05 s⁻¹,< 1e-05 s⁻¹

Variant,kcat [1],KM [2],self-cleavage kobs at 640 uM GlcN6P [3],self-cleavage kobs at 2500 uM GlcN6P [4],self-cleavage kobs at 10000 uM GlcN6P [5],self-cleavage kobs at 160 uM GlcN6P [6],self-cleavage kobs at 40 uM GlcN6P [7]
C16G G40U,0.00053 ± 2.1e-05 s⁻¹,4960 ± 340 µM,6.22e-05 ± 1.1e-05 s⁻¹,0.000171 ± 2.7e-05 s⁻¹,0.000357 ± 4.2e-05 s⁻¹,–,–
G44U U47G,1.56e-05 ± 2.1e-07 s⁻¹,2560 ± 150 µM,–,–,–,–,–
U45A A48G,0.000299 ± 7.2e-05 s⁻¹,–,8.14e-05 ± 1.3e-05 s⁻¹,0.00033 ± 4.4e-05 s⁻¹,0.00024 ± 2.6e-05 s⁻¹,–,–
G37C C58A G66A C70A C71A,2.19e-05 ± 8.6e-06 s⁻¹,–,–,–,–,–,–
A42U C67G,0.000997 ± 0.00019 s⁻¹,853 ± 310 µM,0.000369 ± 4.9e-05 s⁻¹,0.00082 ± 0.00012 s⁻¹,0.000939 ± 8.5e-05 s⁻¹,0.000114 ± 2.5e-05 s⁻¹,6.76e-05 ± 8.5e-06 s⁻¹
A15G U31A,0.0107 ± 0.0009 s⁻¹,2220 ± 260 µM,0.00236 ± 0.00063 s⁻¹,0.00493 ± 0.0014 s⁻¹,0.00926 ± 0.0017 s⁻¹,0.000722 ± 0.00015 s⁻¹,0.000199 ± 4.4e-05 s⁻¹
G59A U69G,1.93e-05 ± 4.9e-06 s⁻¹,–,–,–,–,–,–
C16U U46A U54G C70A,0.000156 ± 2.4e-05 s⁻¹,743 ± 300 µM,6.86e-05 ± 2.2e-05 s⁻¹,0.000143 ± 3.9e-05 s⁻¹,0.000124 ± 5e-05 s⁻¹,–,–
U56C C58A,0.000232 ± 6.7e-05 s⁻¹,–,3.8e-05 ± 1.6e-05 s⁻¹,5.91e-05 ± 1.6e-05 s⁻¹,0.000146 ± 1.9e-05 s⁻¹,–,–
A39U G44U,0.00106 ± 0.00049 s⁻¹,–,0.000437 ± 3e-05 s⁻¹,0.000955 ± 9.3e-05 s⁻¹,–,0.000143 ± 1.3e-05 s⁻¹,8.33e-05 ± 6.8e-06 s⁻¹
C50A C71U,1.86e-05 ± 6.3e-07 s⁻¹,296 ± 82 µM,–,–,1.86e-05 ± 8.6e-06 s⁻¹,–,–
C11U C70U,0.000987 ± 0.00026 s⁻¹,772 ± 320 µM,0.000397 ± 3.7e-05 s⁻¹,0.000735 ± 9.1e-05 s⁻¹,0.00165 ± 0.00027 s⁻¹,0.000165 ± 2.1e-05 s⁻¹,5.88e-05 ± 6.9e-06 s⁻¹
A42G A52C,1.58e-05 ± 1.8e-06 s⁻¹,–,–,–,–,–,–
A14G G44U,0.00141 ± 0.00018 s⁻¹,4650 ± 840 µM,0.000163 ± 2.5e-05 s⁻¹,0.000558 ± 0.0001 s⁻¹,0.000923 ± 0.00019 s⁻¹,4.99e-05 ± 2e-05 s⁻¹,–
C11A U31C,7.57e-05 ± 7.2e-06 s⁻¹,1620 ± 610 µM,–,5.09e-05 ± 1.4e-05 s⁻¹,6.39e-05 ± 1.1e-05 s⁻¹,–,–
G37A C50A,1.38e-05 ± 4.6e-06 s⁻¹,–,–,–,–,–,–
A39U C70G,0.000797 ± 0.00021 s⁻¹,1500 ± 720 µM,0.000201 ± 3.6e-05 s⁻¹,0.000522 ± 8.8e-05 s⁻¹,0.000713 ± 0.0001 s⁻¹,6.66e-05 ± 2e-05 s⁻¹,4.48e-05 ± 9.1e-06 s⁻¹
